According to patent publication US20080279847A1:

Experiments:
[1] = biological target: tumor-associated glycoprotein-72 (TAG-72), used as TAG-72-positive BSM (bovine submaxillary mucin, type-1-S, Sigma) (bovine); test: competitive ELISA, whole IgG, reference 3E8
[2] = biological target: tumor-associated glycoprotein-72 (TAG-72), used as TAG-72-positive BSM (bovine submaxillary mucin, type-1-S, Sigma) (bovine); test: competitive ELISA, whole IgG in COS7 culture supernatant
[3] = biological target: tumor-associated glycoprotein-72 (TAG-72), used as TAG-72-positive BSM (bovine submaxillary mucin, type-1-S, Sigma) (bovine); test: competitive ELISA, whole IgG expressed in animal cells, reference 3E8 whole IgG (FIG. 9)

B1: humanized antibody 3E8/BSM22 (whole IgG form) (antibody, V domains shown)
VH: QVQLVQSGAEVKKPGASVKVSCKASGYTFTDHAIHWVRQAPGQRLEWMGYFSPGNDDFKYSQKFQGRVTITADKSASTAYMELSSLRSEDTAVYYCARSWIMQYWGQGTLVTVSS
VL: DIVMTQSPDSLAVSLGERATIHCKSSQSILYSSNNKNYLAWYQQKPGQPPKLLLYWASTREAGVPDRFSGGGSGTDFTLTISSLQPEDSATYYCQQYNTYPLTFGGGTKVEIK
- fold higher antigen binding affinity than the 3E8 antibody [1]: 1.5 fold
- Kd [2]: 0.45 nM
- fold higher antigen binding affinity than the 3E8 antibody [3]: 1.5 fold
